Assays:
[1] = molecular target: T1, Aβ(1–40) oligomers (Homo sapiens, UniProt P05067); experiment: far-Western, overlay or dot blot; spot blot: 1–20 μg of each Aβ species (oligomers/intermediates or fibrils) on nitrocellulose, blocked with 2% BSA in TBST; 4 μg/ml B10AP or KW1AP in TBST for 1 h, room temperature; NBT/BCIP; densitometry; settings: both partners purified
T1 construct: β-amyloid peptide Aβ(1–40), the 40 amino acid isoform, cut product of the amyloid precursor protein; numbers count on: the Aβ peptide; Oligomeric assembly state; also called Aβ(1–40) intermediates; Aβ(1-40)-derived oligomers; source: oligomers prepared in 100% HFIP, diluted 10-fold with water, supernatant after 14,000 x g

[2] = molecular target: T2, Aβ(1–40) expressed in Drosophila (KW1;Aβ40 flies) (Homo sapiens (expressed in Drosophila), UniProt P05067); experiment: co-IP; head homogenates of 20-day old KW1;Aβ40 flies incubated with blocked protein A magnetic beads without antibody (fly KW1 binds the beads directly); PBS + 0.025% TritonX-100, room temperature; elution with 50 mM glycine pH 2.8; WB with 6E10 (Aβ) and anti-myc (KW1); settings: partners not purified
T2 construct: β-amyloid peptide Aβ(1–40); numbers count on: the Aβ peptide; Assembly state of the peptide in the fly homogenate is not defined; source: transgenic Drosophila melanogaster (Gal4-elav c155 driver, neuronal), in head homogenate of 20-day old flies

[3] = molecular target: T3, Aβ(1–42) fibrils (Homo sapiens, UniProt P05067); experiment: far-Western, overlay or dot blot; spot blot: 1–20 μg of each Aβ species (oligomers/intermediates or fibrils) on nitrocellulose, blocked with 2% BSA in TBST; 4 μg/ml B10AP or KW1AP in TBST for 1 h, room temperature; NBT/BCIP; densitometry; settings: both partners purified
T3 construct: β-amyloid peptide Aβ(1–42), the 42 amino acid isoform, cut product of the amyloid precursor protein; numbers count on: the Aβ peptide; Fibrillar assembly state; also called Aβ(1–42) amyloid fibrils; source: synthetic peptide (Dr. Sven Rothemund, University Leipzig); fibrils formed at 1 mg/ml in 50 mM sodium borate, pH 9.0, 5 days, room temperature

[4] = molecular target: T4, Aβ(1–40) fibrils (Homo sapiens, UniProt P05067); experiment: as above; settings: both partners purified
T4 construct: β-amyloid peptide Aβ(1–40), the 40 amino acid isoform, cut product of the amyloid precursor protein; numbers count on: the Aβ peptide; Fibrillar assembly state; also called Aβ(1–40) amyloid fibrils; source: fibrils formed at 1 mg/ml in 50 mM sodium borate, pH 9.0, 5 days, room temperature

B1: KW1AP (alkaline phosphatase coupled KW1 antibody fragment) (VHH)
VHH: EVQLVESGGGSVQPGGSLRLSCTASGYTFSQEFVIWFRQAPGKEREIVSGISLRKGWTYYADSVKGRFTISQDNAKNTVYLQMNNLKPEDTAMYYCAAAPTATHALYFDYWGQGTQVTVSS
notes: KW1, phage display selected from a fully synthetic library of camelid heavy chain antibody fragments; crystal structure of KW1 is PDB 3TPK; The introduction speaks of bivalent KW1 in earlier work; also called AP coupled KW1
binding result [1]: binds

B2: fly KW1 (myc-tagged KW1 antibody fragment expressed in Drosophila neurons) (VHH)
VHH: EVQLVESGGGSVQPGGSLRLSCTASGYTFSQEFVIWFRQAPGKEREIVSGISLRKGWTYYADSVKGRFTISQDNAKNTVYLQMNNLKPEDTAMYYCAAAPTATHALYFDYWGQGTQVTVSS
notes: KW1 as in m1; crystal structure PDB 3TPK; Expressed with an N-terminal secretion signal peptide (SSP) from the Drosophila necrotic gene; Band at ~17 kDa on anti-myc Western blot; source: transgenic Drosophila melanogaster (Gal4-elav c155 driver, neuronal), in head homogenate; not shown: myc, C-terminal, kept
binding result [2]: binds

B3: B10AP (alkaline phosphatase coupled B10 antibody fragment) (VHH)
VHH: EVQLVESGGGLVQPGGSLRLSCTASGYTFSHRYHRWFRQAPGKEREIVAVISQSGMRTYYADSVKGRFTISRDNAKNTVYLQMNSLKPEDTAMYYCAAGTRKNVWTRQHPFDYWGQGTQVTVSS
notes: B10, phage display selected from a fully synthetic library of camelid heavy chain antibody fragments; crystal structure of B10 is PDB 3LN9; The introduction speaks of bivalent B10 in earlier work; also called AP coupled B10
binding result [3]: binds
binding result [4]: binds

Source: publication PMC4029271, “Oligomer-targeting with a conformational antibody fragment promotes toxicity in Aβ-expressing flies” (Acta Neuropathologica Communications, 2014)
